Source: the supplement of paper PMC12338614
± gives the uncertainty stated by the source.

B1: library; numbered along this chain (parent)
chain: MEVVDPQQLGMFTEGELMSVGMDTFIHRIDSTEVIYQPRRKRAKLIGKYLMGDLLGEGSYGKVKEVLDSETLCRRAVKILKKKKLRRIPNGEANVKKEIQLLRRLRHKNVIQLVDVLYNEEKQKMYMVMEYCVCGMQEMLDSVPEKRFPVCQAHGYFCQLIDGLEYLHSQGIVHKDIKPGNLLLTTGGTLKISDLGVAEALHPFAADDTCRTSQGSPAFQPPEIANGLDTFSGFKVDIWSAGVTLYNITTGLYPFEGDNIYKLFENIGKGSYAIPGDCGPPLSDLLKGMLEYEPAKRFSIRQIRQHSWFRKKHPPAEAPVPIPPSPDTKDRWRSMTVVPYLEDLHGADEDEDLFDIEDDIIYTQDFTVPGQVPEEEASHNGQRRGLPKAVCMNGTEAAQLSTKSRAEGRAPNPARKACSASSKIRRLSACKQQ

Variants of: B1
Test: STK11 functional score (HeLa growth suppression), rescaled enrichment; synonymous median = 1, nonsense median = 0 (normalised score)
Settings: with HeLa; variant type: missense
Procedure, shortened: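 HeLa cells carrying an AAVS1 landing pad received codon-optimised STK11 libraries made by codon randomisation (POPCode), integrated by Bxb1, with three regions each transfected three times. Integrants that were BFP-negative and mCherry-positive were sorted by FACS 4–5 days after electroporation and then grown for about two weeks. Tiled amplicons from gDNA were sequenced on NextSeq at ~2 million reads per tile. The functional score is a wild-type-corrected log ratio of post- to pre-selection counts, rescaled to the synonymous and nonsense medians, merged across codons and replicate transfections, and given a bootstrapped error.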

STK11 functional score: each site, then its substitutions
G135: I 1.69 ± 0.39, D 1.06 ± 0.37, W 0.571 ± 0.6, K 1.63 ± 0.18, P 1.7 ± 0.27, R 1.38 ± 0.38, H 1.63 ± 0.21, N 1.7 ± 0.41, A 1.56 ± 0.28, S 1.65 ± 0.17, Q 1.57 ± 0.1, E 1.45 ± 0.13, C 1.54 ± 0.27, V 1.29 ± 0.3, F 1.09 ± 0.08, T 1.66 ± 0.28, L 1.52 ± 0.15, Y 1.32 ± 0.09
M129: D 1.37 ± 0.36, L 0.635 ± 0.09, W 0.743 ± 0.079, R 1.13 ± 0.28, K 1.35 ± 0.58, N 0.571 ± 0.13, V 0.303 ± 0.084, T 0.97 ± 0.14, G 0.986 ± 0.11, S 0.731 ± 0.16, I 0.692 ± 0.11, F 0.993 ± 0.47, C 1.26 ± 0.13
Q137: A 1.02 ± 0.15, D 0.482 ± 0.11, M 1.54 ± 0.059, N 1.62 ± 0.28, Y 0.779 ± 0.3, S 1.42 ± 0.23, T 1.6 ± 0.28, R 0.73 ± 0.12, W 1.25 ± 0.087, L 1.27 ± 0.084, P 1.19 ± 0.32, H 0.922 ± 0.5, K 0.752 ± 0.41, V 1.27 ± 0.12, E 0.452 ± 0.43, I 0.934 ± 0.38, G 0.734 ± 0.14
Y126: T -0.0466 ± 0.081, R 0.256 ± 0.18, F 0.719 ± 0.13, M 0.654 ± 0.64, H 0.681 ± 0.86, L 0.421 ± 0.13, A 1.21 ± 0.25, S 0.6 ± 0.1, V 0.762 ± 0.16, W 0.105 ± 0.079, C 0.357 ± 0.08, P -0.144 ± 0.083, G 0.669 ± 0.13
V133: A 1.41 ± 0.4, P 1.53 ± 0.38, S 1.06 ± 0.3, R 0.519 ± 0.12, I 1.24 ± 0.26, D 1.53 ± 0.15, C 1.35 ± 0.33, L 0.982 ± 0.085, N 1.17 ± 0.15, W 0.452 ± 0.079, T 1 ± 0.41, G 1.14 ± 0.091, H 1.47 ± 0.49, Y 1.55 ± 0.39, E 0.588 ± 0.28
E120: Y 0.964 ± 0.2, P 1.42 ± 0.28, I 1.55 ± 0.18, A 0.817 ± 0.13, L 1.38 ± 0.28, V 1.09 ± 0.086, G 1.26 ± 0.23, C 0.373 ± 0.24, F 1.52 ± 0.4, H 1.66 ± 0.17, M 1.11 ± 0.11, Q 1.16 ± 0.49, R 0.779 ± 0.085, N 1.68 ± 0.39, W 0.626 ± 0.087, T 1.43 ± 0.23, S 1.42 ± 0.18
K124: D 0.919 ± 0.5, Q 1.61 ± 0.18, W 0.166 ± 0.11, G 1.04 ± 0.36, V 1.06 ± 0.11, Y 1.25 ± 0.086, H 1.3 ± 0.16, I 1.51 ± 0.15, P 0.692 ± 0.35, L 0.951 ± 0.13, R 1.18 ± 0.52, N 1.27 ± 0.36, S 0.355 ± 0.12, A 1.13 ± 0.59
K122: R 1.69 ± 0.38, V 0.86 ± 0.084, L 1.43 ± 0.26, F 1.25 ± 0.21, Q 0.235 ± 0.48, W 1.4 ± 0.36, A 1.18 ± 0.53, S 1.65 ± 0.4, M 1.25 ± 0.6, N 1.51 ± 0.3, E 0.911 ± 0.6, P 1.68 ± 0.28, H 1.68 ± 0.18, T 1.61 ± 0.44, C 1.46 ± 0.36, D 1.52 ± 0.36
C134: M 0.248 ± 0.08, A 1.1 ± 0.081, V 0.604 ± 0.11, Q 0.746 ± 0.38, P 1.62 ± 0.19, T 1.61 ± 0.28, G 0.564 ± 0.14, I 1.42 ± 0.084, Y 1.15 ± 0.92, L 0.479 ± 0.083, F 0.425 ± 0.078, R 1.52 ± 0.09, E 1.45 ± 0.2, S 1.49 ± 0.081, W 0.131 ± 0.097
M139: Q 1.11 ± 0.32, G 0.563 ± 0.088, L 1.2 ± 0.11, S 0.816 ± 0.1, T 1.18 ± 0.53, A 1.39 ± 0.58, R 0.918 ± 0.37, Y 1.53 ± 0.46, D -0.172 ± 0.088, W 1.27 ± 0.78, P 0.179 ± 0.18, K 1.41 ± 0.18, C 1.29 ± 0.23, I 1.01 ± 0.15, V 0.965 ± 0.098, N 0.949 ± 0.081, E 0.269 ± 0.09
E121: Q 1.08 ± 0.45, P 1.66 ± 0.23, T 1.13 ± 0.36, A 0.765 ± 0.27, S 1.17 ± 0.1, D 0.812 ± 0.56, R 1.31 ± 0.17, K 0.738 ± 0.69, L 1.43 ± 0.23, I 1.42 ± 0.52, G 1.18 ± 0.26, M 0.84 ± 0.28, N 1.57 ± 0.23, F 0.824 ± 0.14, Y 1.36 ± 0.37, W 0.251 ± 0.073, V 1.41 ± 0.14
M127: E 1.59 ± 0.1, L 0.382 ± 0.08, R 0.302 ± 0.094, P 0.82 ± 0.4, I 0.605 ± 0.22, A 1.5 ± 0.31, S 0.857 ± 0.15, D 0.289 ± 0.08, H 1.63 ± 0.2, T 1.32 ± 0.48, G 0.516 ± 0.14, Y 1.24 ± 0.2, N 1.63 ± 0.19, W 0.627 ± 0.31, V 0.95 ± 0.26
Q123: D 0.981 ± 0.62, F 0.854 ± 0.079, E 1.15 ± 0.23, P 0.451 ± 0.33, V 0.961 ± 0.2, S 1.49 ± 0.17, R 0.312 ± 0.081, Y 1.01 ± 0.22, C 1.35 ± 0.34, A 1.11 ± 0.28, M 1.6 ± 0.17, G 0.98 ± 0.27, T 1.27 ± 0.65, H 1.11 ± 0.38, W 0.588 ± 0.23, K 0.3 ± 0.27, L 0.679 ± 0.16, I 0.581 ± 0.083
Y131: G 0.769 ± 0.28, A 0.676 ± 0.19, W 0.739 ± 0.093, L 1.36 ± 0.18, E 0.174 ± 0.082, C 0.51 ± 0.24, Q -0.0871 ± 0.078, S 1.18 ± 0.22, M -0.137 ± 0.13, V 0.785 ± 0.087, H 1.2 ± 0.44, I 1.2 ± 0.3, D 0.0798 ± 0.094, R 0.218 ± 0.086
M136: N -0.15 ± 0.087, W -0.224 ± 0.078, S 0.0685 ± 0.09, P -0.132 ± 0.082, D -0.0676 ± 0.092, H -0.214 ± 0.081, L 0.989 ± 0.083, R -0.124 ± 0.086, G -0.14 ± 0.082, Y -0.238 ± 0.083, K 0.279 ± 0.63, A 0.691 ± 0.12, E 0.000415 ± 0.084, Q 0.0397 ± 0.082
M125: S 0.769 ± 0.16, W 1.25 ± 0.15, L 1 ± 0.14, I 1.11 ± 0.19, Y 1.31 ± 0.52, D 0.704 ± 0.082, Q 1.68 ± 0.17, G 1.03 ± 0.16, A 1.14 ± 0.36, K 1.04 ± 0.67, V 0.78 ± 0.12, R 0.355 ± 0.099, P 0.267 ± 0.29, H 0.857 ± 0.64
C132: H 1.16 ± 0.21, G 0.44 ± 0.083, L 0.813 ± 0.2, Q 1.58 ± 0.14, A 1.47 ± 0.32, W -0.606 ± 0.08, T 1.52 ± 0.24, N 1.23 ± 0.38, I 1.32 ± 0.25, P -0.178 ± 0.083, E 1.06 ± 0.36, Y 0.597 ± 0.082, K 1.25 ± 0.49, M 1.35 ± 0.73, S 0.556 ± 0.09, V 0.601 ± 0.22, R -0.197 ± 0.084, F 0.255 ± 0.089
E138: C 0.386 ± 0.081, L 1.15 ± 0.22, S 1.26 ± 0.12, Y 1.08 ± 0.077, D 1.1 ± 0.21, W 1.19 ± 0.16, A 1.09 ± 0.15, R -0.217 ± 0.089, M 1.27 ± 0.18, I 1.48 ± 0.37, N 0.232 ± 0.14, K 1.59 ± 0.56, V 0.367 ± 0.2
V128: P -0.00512 ± 0.14, Q 1.22 ± 0.12, Y 1.41 ± 0.23, I 1.63 ± 0.36, R 0.15 ± 0.084, S 0.466 ± 0.12, G 0.233 ± 0.1, L 0.945 ± 0.1, W 0.804 ± 0.43, C 1.15 ± 0.1, A 0.438 ± 0.1, F 1.13 ± 0.21, N 1.28 ± 0.32, H 0.71 ± 0.17
N119: H 1.3 ± 0.22, D 0.736 ± 0.88, L 1.17 ± 0.27, W 1.58 ± 0.17, R 1.26 ± 0.17, V 0.707 ± 0.14, Y 1.12 ± 0.39, K 1.18 ± 0.15, A 1.44 ± 0.23, G 0.965 ± 0.23, F 1.16 ± 0.097, S 0.694 ± 0.11, P 1.37 ± 0.29, T 1.42 ± 0.32, I 1.51 ± 0.062, E 0.994 ± 0.093, M 0.408 ± 0.074
Y118: L 0.633 ± 0.1, N 0.286 ± 0.15, R 1.04 ± 0.18, W 0.378 ± 0.09, V 0.988 ± 0.11, M 1.62 ± 0.21, Q 1.52 ± 0.14, T 1.61 ± 0.14, S 0.99 ± 0.1, P 1.3 ± 0.14
E130: V 0.458 ± 0.082, P 0.365 ± 0.27, W -0.0647 ± 0.079, C 0.373 ± 0.08, K 1.36 ± 0.14, G 0.45 ± 0.39, S 1.4 ± 0.09, L 0.308 ± 0.083, Q 0.94 ± 0.3, Y 0.104 ± 0.12, I 0.376 ± 0.28, M 0.0424 ± 0.11, F 0.993 ± 0.35, T 1.33 ± 0.34, R 0.369 ± 0.14
